± gives the uncertainty stated by the source.
Assay: self-splicing fitness, log relative to wild type (ln ratio); higher = more splicing; Tetrahymena group I intron in knt gene, E. coli kanamycin selection, DiMSum; sequences stand for … in CUCUCU…GGAGGGAAAAGUUAUCAGGCAUGCACCUGGUAGCUAGUCUUUAAACCAAUAGAUUGCAUCGGUUUAAAAGGCAAGACCGUCAAAUUGCGGGAAAGGGGUCAACAGCCGUUCAGUACCAAGUCUCAGGGGAAACUUUGAGAUGGCCUUGCAAAGGGUAUGGUAAUAAGCUGACGGACAUGGUCCUAACCACGCAGCCAAGUCCUAAGUCAACAGAUCUUCUGUUGAUAUGGAUGCAGUUCACAGACUAAAUGUCGGUCGGGGAAGAUGUAUUCUUCUCAUAAGAUAUAGUCGGACCUCUCCUUAAUGGGAGCUAGCGGAUGAAGUGAUGCAACACUGGAGCCGCUGGGAACUAAUUUGUAUGCGAAAGUAUAUUGAUUAGUUUUGGAGUACUCGUGGUCG
Summary of the method: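 Colonies from six replicate transformations of E. coli BL21(DE3) were pooled and amplicon-sequenced on an Illumina HiSeq 2500. The library placed an intron with all eight P1ex-region nucleotides randomised inside the knt kanamycin-resistance gene on pET-22b(+), and cells grew overnight at 37°C or 30°C on LB agar with or without 25 μg/mL kanamycin (plus 100 μg/mL carbenicillin, 50 μM IPTG, 0.2% rhamnose). Fitness is the DiMSum error-weighted combination of wild-type-normalised replicate fold changes, kanamycin versus none.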

Row | Sequence | self-splicing fitness (ln) (37 °C) | self-splicing fitness (ln) (30 °C)
1 | UCAGAGCAAUAUUACGAGCA | -2.06 ± 0.48 | –
2 | UCAGAGCAAUAUUACGAUCG | -2.39 ± 0.33 | –
3 | UCAGAGCAAUAUUACGCCCA | – | -2.06 ± 0.44
4 | UCAGAGCAAUAUUACGCGAA | -3.1 ± 0.29 | -2.61 ± 0.21
5 | UCAGAGCAAUAUUACGCGCG | -1.79 ± 0.18 | -2.44 ± 0.19
6 | UCAGAGCAAUAUUACGCUAU | -2.08 ± 0.41 | -3.45 ± 0.48
7 | UCAGAGCAAUAUUACGCUUA | -2.48 ± 0.18 | -2.91 ± 0.24
8 | UCAGAGCAAUAUUACGCUUC | -2.73 ± 0.48 | -1.74 ± 0.24
9 | UCAGAGCAAUAUUACGGACU | -1.77 ± 0.3 | –
10 | UCAGAGCAAUAUUACGGGCC | – | -3.69 ± 0.44
11 | UCAGAGCAAUAUUACGGGUC | -2.12 ± 0.32 | -3.97 ± 0.34
12 | UCAGAGCAAUAUUACGGUGC | -0.485 ± 0.15 | -3.88 ± 0.35
13 | UCAGAGCAAUAUUACGUCAG | -2.41 ± 0.29 | -2.84 ± 0.3
14 | UCAGAGCAAUAUUACGUCCU | – | -3.91 ± 0.42
15 | UCAGAGCAAUAUUACGUUGC | -1.48 ± 0.32 | –
16 | UCAGAGCAAUAUUACGUUUU | -3.13 ± 0.26 | -3.84 ± 0.26
17 | UCAUAGCAAUAUUACGACGA | -0.532 ± 0.11 | -0.24 ± 0.096
18 | UCAUAGCAAUAUUACGACUC | -1.46 ± 0.37 | -2.18 ± 0.37
19 | UCAUAGCAAUAUUACGAGAC | -2.03 ± 0.34 | -2.84 ± 0.31
20 | UCAUAGCAAUAUUACGAGCG | -0.509 ± 0.13 | -1.95 ± 0.12
21 | UCAUAGCAAUAUUACGAGCU | -2.72 ± 0.3 | -2.69 ± 0.26
22 | UCAUAGCAAUAUUACGAGGA | -0.473 ± 0.21 | -3.42 ± 0.34
23 | UCAUAGCAAUAUUACGAGGG | -1.83 ± 0.29 | -2.24 ± 0.21
24 | UCAUAGCAAUAUUACGAUUA | -0.81 ± 0.25 | -0.984 ± 0.17
25 | UCAUAGCAAUAUUACGCCUC | -1.04 ± 0.2 | -2.43 ± 0.31
26 | UCAUAGCAAUAUUACGCGAC | -1.46 ± 0.46 | –

Row | Sequence | self-splicing fitness (ln) (37 °C) | self-splicing fitness (ln) (30 °C)
27 | UCAUAGCAAUAUUACGCGCG | -0.412 ± 0.21 | -0.405 ± 0.3
28 | UCAUAGCAAUAUUACGCGCU | – | -3.22 ± 0.42
29 | UCAUAGCAAUAUUACGCGUA | -0.884 ± 0.08 | -1.44 ± 0.09
30 | UCAUAGCAAUAUUACGCUUG | -2 ± 0.19 | -1.97 ± 0.15
31 | UCAUAGCAAUAUUACGGAGU | -2.86 ± 0.25 | -3.88 ± 0.34
32 | UCAUAGCAAUAUUACGGAUG | -2.07 ± 0.21 | -2.58 ± 0.21
33 | UCAUAGCAAUAUUACGUAUU | -2.85 ± 0.27 | -2.48 ± 0.22
34 | UCAUAGCAAUAUUACGUCCG | -1.67 ± 0.29 | 0.46 ± 0.24
35 | UCAUAGCAAUAUUACGUGGG | -1.75 ± 0.098 | -3.39 ± 0.16
36 | UCAUAGCAAUAUUACGUUAC | -3.01 ± 0.33 | -3.58 ± 0.29
37 | UCAUAGCAAUAUUACGUUUC | -1.72 ± 0.23 | -3.79 ± 0.43
38 | UCCAAGCAAUAUUACGAAAA | -0.93 ± 0.12 | -2.15 ± 0.18
39 | UCCAAGCAAUAUUACGAAGG | -0.206 ± 0.15 | -1.32 ± 0.11
40 | UCCAAGCAAUAUUACGAGAU | – | -3.54 ± 0.18
41 | UCCAAGCAAUAUUACGAGGA | -2.3 ± 0.23 | -2.7 ± 0.2
42 | UCCAAGCAAUAUUACGAUCC | -0.628 ± 0.48 | –
43 | UCCAAGCAAUAUUACGAUUU | -2.71 ± 0.28 | -3.72 ± 0.26
44 | UCCAAGCAAUAUUACGCCCA | -1.07 ± 0.21 | -0.733 ± 0.14
45 | UCCAAGCAAUAUUACGCGUC | -2.63 ± 0.11 | -3.21 ± 0.1
46 | UCCAAGCAAUAUUACGCUAG | -3.6 ± 0.35 | -3.67 ± 0.32
47 | UCCAAGCAAUAUUACGGAAC | -3.52 ± 0.35 | –
48 | UCCAAGCAAUAUUACGGACA | -0.757 ± 0.084 | -2.37 ± 0.11
49 | UCCAAGCAAUAUUACGGCAA | -0.0878 ± 0.095 | -0.817 ± 0.095
50 | UCCAAGCAAUAUUACGGCGG | -0.773 ± 0.092 | -1.42 ± 0.079
51 | UCCAAGCAAUAUUACGGGAA | -0.547 ± 0.079 | -1.07 ± 0.078
52 | UCCAAGCAAUAUUACGGGGC | -3.13 ± 0.2 | -4.07 ± 0.23
